Data published in publication PMC11187310, “Are there double knots in proteins? Prediction and in vitro verification based on TrmD-Tm1570 fusion from C. nitroreducens” (Frontiers in Molecular Biosciences, 2023).

Legend:
[1] = target: Tm1570 domain of CnTrmD-Tm1570 (residues 241-433) (Calditerrivibrio nitroreducens); test: SEC; preparative Superdex 75 column; running buffer 50 mM Hepes, 300 mM NaCl, 10% glycerol, 1 mM TCEP, pH 7.4; proteins refolded from urea; oligomer state judged by retention volumes
[2] = target: the molecule itself; test: as above

| Molecule | stoichiometry N [2] | other results |
| --- | --- | --- |
| Tm1570 domain of CnTrmD-Tm1570 (residues 241-433) (domain or fragment) | – | stoichiometry N [1]: 2 |
| TrmD-Tm1570 fusion protein from Calditerrivibrio nitroreducens (enzyme, UniProt E4THH1 1-433, looked up, TrmD-Tm1570 (PF01746-PF09936 architecture) of Calditerrivibrio nitroreducens, UniProtKB E4THH1; full-length protein, residues 1-433 by the limits of the two truncated domains; 49.6 kDa monomer; Codon-optimized synthetic gene in pET28b; further details of the constructs are in SI Materials and Methods; also called CnTrmD-Tm1570; fusion TrmD-Tm1570) MKRYNVITIFPEMINEIFKYGVLSKGIDIGLFRVNPINLRDYTEDKHKTVDDYQYGGGHGLVMKPEPIYKAIADLKSKKDTHVVFLDPRGEQFTQKTAERLYNYDDITFVCGRYEGIDDRVRELMADEMISIGDFVITGGELAAVTIIDAVARLIPGVLGDENSPNEESFTTGLLEYPHFTRPAEFMGKKVPEVLISGNHEEIRRWRLTESIKTTLQNRPDMILRKSLSREEEQILWSLTRGVQRKYNIYVALMHYPMRDKEGKVVTTSITNMDLHDISRSCRTFGVKNYFVVNPMPAQREIASRVVRHWIKGYGATYNENRKEAFEYTIITDSLASVIKSIEEKESGSPIIIATTARYQQKAISIEKLKEIADRPILLLFGTGWGFVDDILEFADYVLKPIHGVGDFNHLSVRSAVAIYLDRINRSFQEDIL | 2 | – |
| single-domain EcTrmD (enzyme, E. coli (from the label EcTrmD), UniProt P0A873 1-255, looked up, tRNA methyltransferase D (TrmD), single-domain protein, labelled EcTrmD; 28.4 kDa monomer; The printed monomer mass of 28.4 kDa fits the whole protein) MWIGIISLFPEMFRAITDYGVTGRAVKNGLLSIQSWSPRDFTHDRHRTVDDRPYGGGPGMLMMVQPLRDAIHAAKAAAGEGAKVIYLSPQGRKLDQAGVSELATNQKLILVCGRYEGIDERVIQTEIDEEWSIGDYVLSGGELPAMTLIDSVSRFIPGVLGHEASATEDSFAEGLLDCPHYTRPEVLEGMEVPPVLLSGNHAEIRRWRLKQSLGRTWLRRPELLENLALTEEQARLLAEFKTEHAQQQHKHDGMA | – | binding result [2]: binds |
| TrmD domain of CnTrmD-Tm1570 (residues 1-240) (domain or fragment, Calditerrivibrio nitroreducens, UniProt E4THH1 1-240, looked up, TrmD domain of TrmD-Tm1570 of Calditerrivibrio nitroreducens, UniProtKB E4THH1, residues 1-240; 27.5 kDa monomer; Truncated version of m1) MKRYNVITIFPEMINEIFKYGVLSKGIDIGLFRVNPINLRDYTEDKHKTVDDYQYGGGHGLVMKPEPIYKAIADLKSKKDTHVVFLDPRGEQFTQKTAERLYNYDDITFVCGRYEGIDDRVRELMADEMISIGDFVITGGELAAVTIIDAVARLIPGVLGDENSPNEESFTTGLLEYPHFTRPAEFMGKKVPEVLISGNHEEIRRWRLTESIKTTLQNRPDMILRKSLSREEEQILWSLT | 2 | – |
